Reference: US20240117018A1

How the values were obtained:
Assay in all cases: cell-based or functional assay
[1] = molecular target: HIV-1 Env of pseudovirus 1012_11_TC21_3257 (HIV-1)
[2] = molecular target: HIV-1 Env of pseudovirus 191084 B7-19 (HIV-1)
[3] = molecular target: HIV-1 Env of pseudovirus 191955_A11 (HIV-1)
[4] = molecular target: HIV-1 Env of pseudovirus 211-9 (HIV-1)
[5] = molecular target: HIV-1 Env of pseudovirus 249M B10 (HIV-1)
[6] = molecular target: HIV-1 Env of pseudovirus 6244_13_B5_4576 (HIV-1)
[7] = molecular target: HIV-1 Env of pseudovirus 6535.3 (HIV-1)
[8] = molecular target: HIV-1 Env of pseudovirus 7030102001E5(Rev-) (HIV-1)
[9] = molecular target: HIV-1 Env of pseudovirus 89-F1_2_25 (HIV-1)
[10] = molecular target: HIV-1 Env of pseudovirus BJOX009000.02.4 (HIV-1)
[11] = molecular target: HIV-1 Env of pseudovirus BJOX010000.06.2 (HIV-1)
[12] = molecular target: HIV-1 Env of pseudovirus C4118.c09 (HIV-1)
[13] = molecular target: HIV-1 Env of pseudovirus CAP45.2.00.G3 (HIV-1)
[14] = molecular target: HIV-1 Env of pseudovirus CNE19 (HIV-1)
[15] = molecular target: HIV-1 Env of pseudovirus CNE53 (HIV-1)
[16] = molecular target: HIV-1 Env of pseudovirus CNE58 (HIV-1)
[17] = molecular target: HIV-1 Env of pseudovirus CNE8 (HIV-1)
[18] = molecular target: HIV-1 Env of pseudovirus Ce0682_E4 (HIV-1)
[19] = molecular target: HIV-1 Env of pseudovirus Ce1086_B2 (HIV-1)
[20] = molecular target: HIV-1 Env of pseudovirus Ce1172_H1 (HIV-1)
[21] = molecular target: HIV-1 Env of pseudovirus Ce2060_G9 (HIV-1)
[22] = molecular target: HIV-1 Env of pseudovirus Ce703010054_2A2 (HIV-1)
[23] = molecular target: HIV-1 Env of pseudovirus HIV-001428-2.42 (HIV-1)
[24] = molecular target: HIV-1 Env of pseudovirus P1981_C5_3 (HIV-1)
[25] = molecular target: HIV-1 Env of pseudovirus Q23.17 (HIV-1)
[26] = molecular target: HIV-1 Env of pseudovirus Q461.e2 (HIV-1)
[27] = molecular target: HIV-1 Env of pseudovirus RHPA4259.7 (HIV-1)
[28] = molecular target: HIV-1 Env of pseudovirus SC422661.8 (HIV-1)
[29] = molecular target: HIV-1 Env of pseudovirus T250-4 (HIV-1)
[30] = molecular target: HIV-1 Env of pseudovirus T255-34 (HIV-1)
[31] = molecular target: HIV-1 Env of pseudovirus THRO4156.18 (HIV-1)
[32] = molecular target: HIV-1 Env of pseudovirus TRJO4551.58 (HIV-1)
[33] = molecular target: HIV-1 Env of pseudovirus WEAU_d15_410_787 (HIV-1)
[34] = molecular target: HIV-1 Env of pseudovirus WITO4160.33 (HIV-1)
[35] = molecular target: HIV-1 Env of pseudovirus ZM214M.PL15 (HIV-1)
[36] = molecular target: HIV-1 Env of pseudovirus ZM233M.PB6 (HIV-1)
[37] = molecular target: HIV-1 Env of pseudovirus ZM53M.PB12 (HIV-1)

N49P7 (antibody)
IC50 [1]: 0.046 µg/mL | IC80 [1]: 0.125 µg/mL | MPI [1]: 100 | IC50 [2]: 0.047 µg/mL | IC80 [2]: 0.142 µg/mL | MPI [2]: 100 | IC50 [3]: 1.81 µg/mL | IC80 [3]: 8.87 µg/mL | MPI [3]: 99 | IC50 [4]: 0.22 µg/mL | IC80 [4]: 0.767 µg/mL | MPI [4]: 100 | IC50 [5]: 0.081 µg/mL | IC80 [5]: 0.377 µg/mL | MPI [5]: 100 | IC50 [6]: 0.111 µg/mL | IC80 [6]: 0.386 µg/mL | MPI [6]: 100 | IC50 [7]: 0.186 µg/mL | IC80 [7]: 0.598 µg/mL | MPI [7]: 100 | IC50 [8]: 0.184 µg/mL | IC80 [8]: 0.832 µg/mL | MPI [8]: 100 | IC50 (neutralisation, TZM.bl cells) [9]: 21.6 µg/mL | IC80 (neutralisation, TZM.bl cells) [9]: > 50 µg/mL | MPI [9]: 80 | IC50 [10]: 0.113 µg/mL | IC80 [10]: 0.506 µg/mL | MPI [10]: 100 | IC50 [11]: 0.085 µg/mL | IC80 [11]: 0.592 µg/mL | MPI [11]: 100 | IC50 [12]: 0.043 µg/mL | IC80 [12]: 0.147 µg/mL | MPI [12]: 100 | IC50 [13]: 0.06 µg/mL | IC80 [13]: 0.29 µg/mL | MPI [13]: 100 | IC50 [14]: 0.009 µg/mL | IC80 [14]: 0.041 µg/mL | MPI [14]: 100 | IC50 [15]: 0.035 µg/mL | IC80 [15]: 0.124 µg/mL | MPI [15]: 100 | IC50 [16]: 0.029 µg/mL | IC80 [16]: 0.067 µg/mL | MPI [16]: 100 | IC50 [17]: 0.037 µg/mL | IC80 [17]: 0.125 µg/mL | MPI [17]: 100 | IC50 [18]: 0.041 µg/mL | IC80 [18]: 0.131 µg/mL | MPI [18]: 100 | IC50 [19]: 0.089 µg/mL | IC80 [19]: 0.568 µg/mL | MPI [19]: 100 | IC50 [20]: 8.5 µg/mL | IC80 [20]: 37.5 µg/mL | MPI [20]: 92 | IC50 [21]: 0.661 µg/mL | IC80 [21]: 2.55 µg/mL | MPI [21]: 100 | IC50 [22]: 0.132 µg/mL | IC80 [22]: 0.466 µg/mL | MPI [22]: 100 | IC50 [23]: 6 ng/mL | IC80 [23]: 0.02 µg/mL | MPI [23]: 100 | IC50 (neutralisation, TZM.bl cells) [24]: 0.113 µg/mL | IC80 (neutralisation, TZM.bl cells) [24]: 0.274 µg/mL | MPI [24]: 100 | IC50 [25]: 0.052 µg/mL | IC80 [25]: 0.21 µg/mL | MPI [25]: 100 | IC50 [26]: 0.261 µg/mL | IC80 [26]: 0.922 µg/mL | MPI [26]: 100 | IC50 [27]: 0.083 µg/mL | IC80 [27]: 0.246 µg/mL | MPI [27]: 100 | IC50 [28]: 0.114 µg/mL | IC80 [28]: 0.32 µg/mL | MPI [28]: 100 | IC50 [29]: 2.07 µg/mL | IC80 [29]: 21.4 µg/mL | MPI [29]: 91 | IC50 [30]: 0.053 µg/mL | IC80 [30]: 0.262 µg/mL | MPI [30]: 100 | IC50 [31]: 2.34 µg/mL | IC80 [31]: 12.4 µg/mL | MPI [31]: 99 | IC50 [32]: 0.104 µg/mL | IC80 [32]: 0.351 µg/mL | MPI [32]: 100 | IC50 [33]: 0.045 µg/mL | IC80 [33]: 0.117 µg/mL | MPI [33]: 100 | IC50 [34]: 0.084 µg/mL | IC80 [34]: 0.248 µg/mL | MPI [34]: 100 | IC50 [35]: 0.213 µg/mL | IC80 [35]: 0.953 µg/mL | MPI [35]: 100 | IC50 [36]: 0.226 µg/mL | IC80 [36]: 0.774 µg/mL | MPI [36]: 100 | IC50 [37]: 0.251 µg/mL | IC80 [37]: 0.8 µg/mL | MPI [37]: 100

3BNC117 (antibody)
IC50 [1]: 0.02 µg/mL | IC80 [1]: 0.07 µg/mL | IC50 [2]: 0.07 µg/mL | IC80 [2]: 0.23 µg/mL | IC50 [3]: > 50 µg/mL | IC80 [3]: > 50 µg/mL | IC50 [5]: 0.1 µg/mL | IC80 [5]: 0.4 µg/mL | IC50 [6]: 0.04 µg/mL | IC80 [6]: 0.15 µg/mL | IC50 [7]: 0.55 µg/mL | IC80 [7]: 2.44 µg/mL | IC50 [8]: 0.29 µg/mL | IC80 [8]: 1.44 µg/mL | IC50 [13]: 3.88 µg/mL | IC80 [13]: > 50 µg/mL | IC50 [14]: 0.02 µg/mL | IC80 [14]: 0.08 µg/mL | IC50 [15]: 0.08 µg/mL | IC80 [15]: 0.99 µg/mL | IC50 [16]: 0.25 µg/mL | IC80 [16]: 2.03 µg/mL | IC50 [18]: 0.03 µg/mL | IC80 [18]: 0.15 µg/mL | IC50 [19]: 0.09 µg/mL | IC80 [19]: 0.31 µg/mL | IC50 [20]: > 50 µg/mL | IC80 [20]: > 50 µg/mL | IC50 [21]: 0.24 µg/mL | IC80 [21]: 0.81 µg/mL | IC50 [22]: 0.37 µg/mL | IC80 [22]: 1.67 µg/mL | IC50 [23]: 3 ng/mL | IC80 [23]: 0.02 µg/mL | IC50 [25]: 0.005 µg/mL | IC80 [25]: 0.02 µg/mL | IC50 [26]: 0.03 µg/mL | IC80 [26]: 0.09 µg/mL | IC50 [27]: < 0.09 µg/mL | IC80 [27]: < 0.09 µg/mL | IC50 [28]: 0.02 µg/mL | IC80 [28]: 0.08 µg/mL | IC50 [31]: 1.76 µg/mL | IC80 [31]: 10.1 µg/mL | IC50 [32]: 0.05 µg/mL | IC80 [32]: 0.19 µg/mL | IC50 [33]: 0.05 µg/mL | IC80 [33]: 0.19 µg/mL | IC50 [34]: 0.01 µg/mL | IC80 [34]: 0.04 µg/mL | IC50 [35]: 0.06 µg/mL | IC80 [35]: 0.52 µg/mL | IC50 [36]: 0.13 µg/mL | IC80 [36]: 0.85 µg/mL | IC50 [37]: 0.21 µg/mL | IC80 [37]: 0.85 µg/mL

8ANC195 (antibody)
IC50 [1]: > 50 µg/mL | IC80 [1]: > 50 µg/mL | IC50 [2]: > 50 µg/mL | IC80 [2]: > 50 µg/mL | IC50 [3]: > 50 µg/mL | IC80 [3]: > 50 µg/mL | IC50 [5]: > 50 µg/mL | IC80 [5]: > 50 µg/mL | IC50 [6]: > 50 µg/mL | IC80 [6]: > 50 µg/mL | IC50 [7]: 0.2 µg/mL | IC80 [7]: 0.91 µg/mL | IC50 [8]: 0.86 µg/mL | IC80 [8]: 8.32 µg/mL | IC50 [13]: 28.3 µg/mL | IC80 [13]: > 50 µg/mL | IC50 [14]: 0.29 µg/mL | IC80 [14]: 1.73 µg/mL | IC50 [15]: > 50 µg/mL | IC80 [15]: > 50 µg/mL | IC50 [16]: > 50 µg/mL | IC80 [16]: > 50 µg/mL | IC50 [18]: 0.2 µg/mL | IC80 [18]: 1.29 µg/mL | IC50 [19]: 4.42 µg/mL | IC80 [19]: 19.1 µg/mL | IC50 [20]: 42.3 µg/mL | IC80 [20]: > 50 µg/mL | IC50 [21]: 6.2 µg/mL | IC80 [21]: > 50 µg/mL | IC50 [22]: 13.6 µg/mL | IC80 [22]: > 50 µg/mL | IC50 [23]: > 50000 ng/mL | IC80 [23]: > 50 µg/mL | IC50 [25]: 2.55 µg/mL | IC80 [25]: 2.55 µg/mL | IC50 [26]: 0.63 µg/mL | IC80 [26]: 2.51 µg/mL | IC50 [27]: 0.34 µg/mL | IC80 [27]: 1.56 µg/mL | IC50 [28]: 0.29 µg/mL | IC80 [28]: 4.67 µg/mL | IC50 [31]: > 50 µg/mL | IC80 [31]: > 50 µg/mL | IC50 [32]: 0.19 µg/mL | IC80 [32]: 1.17 µg/mL | IC50 [33]: > 50 µg/mL | IC80 [33]: > 50 µg/mL | IC50 [34]: > 50 µg/mL | IC80 [34]: > 50 µg/mL | IC50 [35]: 0.91 µg/mL | IC80 [35]: 12.3 µg/mL | IC50 [36]: 7.39 µg/mL | IC80 [36]: 43.5 µg/mL | IC50 [37]: > 30 µg/mL | IC80 [37]: > 30 µg/mL
